# Where no end group is shown, it is not given here. [ ]: non-standard residue; d: D form.
# B1: Peptide 1-12 (peptide)
# chain: Ac-DELEPLTGF[dR][dR]RR-NH2
# SMILES: CC(=O)N[C@@H](CC(=O)O)C(=O)N[C@@H](CCC(=O)O)C(=O)N[C@@H](CC(C)C)C(=O)N[C@@H](CCC(=O)O)C(=O)N1CCC[C@H]1C(=O)N[C@@H](CC(C)C)C(=O)N[C@H](C(=O)NCC(=O)N[C@@H](Cc1ccccc1)C(=O)N[C@H](CCCNC(=N)N)C(=O)N[C@H](CCCNC(=N)N)C(=O)N[C@@H](CCCNC(=N)N)C(=O)N[C@@H](CCCNC(=N)N)C(N)=O)[C@@H](C)O
# B2: Peptide 1-13 (peptide)
# chain: Ac-DELEPLTGFRR[dR][dR]-NH2
# SMILES: CC(=O)N[C@@H](CC(=O)O)C(=O)N[C@@H](CCC(=O)O)C(=O)N[C@@H](CC(C)C)C(=O)N[C@@H](CCC(=O)O)C(=O)N1CCC[C@H]1C(=O)N[C@@H](CC(C)C)C(=O)N[C@H](C(=O)NCC(=O)N[C@@H](Cc1ccccc1)C(=O)N[C@@H](CCCNC(=N)N)C(=O)N[C@@H](CCCNC(=N)N)C(=O)N[C@H](CCCNC(=N)N)C(=O)N[C@H](CCCNC(=N)N)C(N)=O)[C@@H](C)O
# B3: PLP 1-3 (peptide)
# chain: RRDELEPLTGFRR
# modifications: also: polynorbornene brush polymer conjugate, multivalent
# B4: PLP 1-12 (peptide)
# chain: DELEPLTGF[dR][dR]RR
# modifications: also: polynorbornene brush polymer conjugate, multivalent
# Biological target: Keap1 Kelch domain (UniProt Q14145)
# Sequence (Q14145 whole entry, the tested form may be a part): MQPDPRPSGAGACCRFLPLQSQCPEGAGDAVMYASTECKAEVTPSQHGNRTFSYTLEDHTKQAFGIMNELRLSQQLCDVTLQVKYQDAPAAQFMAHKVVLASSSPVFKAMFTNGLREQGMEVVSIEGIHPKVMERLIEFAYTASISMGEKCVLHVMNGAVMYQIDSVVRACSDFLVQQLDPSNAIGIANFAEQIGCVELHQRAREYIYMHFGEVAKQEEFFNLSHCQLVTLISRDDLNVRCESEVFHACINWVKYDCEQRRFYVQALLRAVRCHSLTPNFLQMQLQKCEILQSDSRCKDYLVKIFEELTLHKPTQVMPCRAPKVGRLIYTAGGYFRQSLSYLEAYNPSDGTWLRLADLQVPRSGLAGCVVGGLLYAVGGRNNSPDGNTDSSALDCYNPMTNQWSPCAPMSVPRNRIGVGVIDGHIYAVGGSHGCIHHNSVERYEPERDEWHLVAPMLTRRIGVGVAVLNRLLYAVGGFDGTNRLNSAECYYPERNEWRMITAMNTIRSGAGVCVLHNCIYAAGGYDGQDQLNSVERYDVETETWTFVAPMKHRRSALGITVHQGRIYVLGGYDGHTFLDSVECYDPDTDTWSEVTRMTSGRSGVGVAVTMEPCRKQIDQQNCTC
# Experiment: other TR-FRET
row,Binder,IC50
1,B1,13.3 nM
2,B2,8.8 nM
3,B3,0.12 nM
4,B4,0.17 nM

# Reference: patent publication US20260374828 (published 2026)
